Assay results reported in article PMC5370183, “Kinetics of the LOV domain of ZEITLUPE determine its circadian function in Arabidopsis” (eLife, 2017).
Residue numbers refer to the chain shown, from its start. Numbers in names are those of the source.

B1: WT ZTL 29–165 (ZEITLUPE LOV domain construct ZTL-S) (domain or fragment, Arabidopsis thaliana, UniProt Q94BT6 29-165, looked up)
chain: GGPIPYPVGNLLHTAPCGFVVTDAVEPDQPIIYVNTVFEMVTGYRAEEVLGGNCRFLQCRGPFAKRRHPLVDSMVVSEIRKCIDEGIEFQGELLNFRKDGSPLMNRLRLTPIYGDDDTITHIIGIQFFIETDIDLGP
notes: also called ZTL LOV domain
B2: ZTL 29–165 G80R (domain or fragment, Arabidopsis thaliana, UniProt Q94BT6 29-165, looked up)
chain: B1 chain with G52R
notes: Tested by SEC in dark and light state
B3: ZTL 29–165 V48I:G80R (domain or fragment, Arabidopsis thaliana, UniProt Q94BT6 29-165, looked up)
chain: B1 chain with V20I, G52R
notes: Crystallised in the dark state (5SVV) and in the light state with the C4a adduct between C82 and FMN (5SVW)
B4: ZTL 29–165 R95A (domain or fragment, Arabidopsis thaliana, UniProt Q94BT6 29-165, looked up)
chain: B1 chain with R67A
B5: ZTL 29–165 G46S:G80R (domain or fragment, Arabidopsis thaliana, UniProt Q94BT6 29-165, looked up)
chain: B1 chain with G18S, G52R
B6: ZTL 16–165 (domain or fragment, Arabidopsis thaliana, UniProt Q94BT6 16-165, looked up)
chain: SLADDEEGGLFPGGGPIPYPVGNLLHTAPCGFVVTDAVEPDQPIIYVNTVFEMVTGYRAEEVLGGNCRFLQCRGPFAKRRHPLVDSMVVSEIRKCIDEGIEFQGELLNFRKDGSPLMNRLRLTPIYGDDDTITHIIGIQFFIETDIDLGP
notes: source: purified protein
B7: FKF1 28–174 (FLAVIN-BINDING, KELCH REPEAT, F-BOX 1 LOV domain) (domain or fragment, Arabidopsis thaliana, UniProt Q9C9W9 28-174, looked up)
chain: NDGIEEQVEDEKLPLEVGMFYYPMTPPSFIVSDALEPDFPLIYVNRVFEVFTGYRADEVLGRNCRFLQYRDPRAQRRHPLVDPVVVSEIRRCLEEGIEFQGELLNFRKDGTPLVNRLRLAPIRDDDGTITHVIGIQVFSETTIDLDR
notes: source: purified protein

Assays:
[1] = target: the molecule itself; assay: SEC; Superdex 200 10/300 analytical column in stabilizing buffer (50 mM Tris pH 7 or 50 mM Hepes pH 8 with 100 mM and 10% glycerol); apparent MW against standards; G80R in dark and light state
[2] = target: the molecule itself; assay: SEC; R95A at 130 µM and 13 µM, dark and light state; elution not concentration dependent; dimer to monomers

Protein	stoichiometry N [1]	Kd [2] [nM]	stoichiometry N [2]
B1	2		
B2	2		
B3	2		
B4		< 200	2
B5	2		
B6	2		
B7	2		
